Measured values taken from the supplement of paper PMC10065799, “High-throughput profiling of sequence recognition by tyrosine kinases and SH2 domains using bacterial peptide display” (eLife, 2023).

What follows are sequences tested against FGFR1 (UniProt P11362) (assay: phosphorylation enrichment, bacterial display (enrichment ratio); higher = better substrate or ligand; peptides without Tyr show the background).
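Also: 11-residue human phosphosite peptides and single-mutation variants displayed on the E. coli surface, counted by deep sequencing, each peptide's frequency after selection divided by its frequency in the unselected input library; frequency after pTyr selection over input frequency; kinase dosed for 20-30% of maximal phosphorylation in three min.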

FGFR1, sequence (P11362 whole entry, looked up): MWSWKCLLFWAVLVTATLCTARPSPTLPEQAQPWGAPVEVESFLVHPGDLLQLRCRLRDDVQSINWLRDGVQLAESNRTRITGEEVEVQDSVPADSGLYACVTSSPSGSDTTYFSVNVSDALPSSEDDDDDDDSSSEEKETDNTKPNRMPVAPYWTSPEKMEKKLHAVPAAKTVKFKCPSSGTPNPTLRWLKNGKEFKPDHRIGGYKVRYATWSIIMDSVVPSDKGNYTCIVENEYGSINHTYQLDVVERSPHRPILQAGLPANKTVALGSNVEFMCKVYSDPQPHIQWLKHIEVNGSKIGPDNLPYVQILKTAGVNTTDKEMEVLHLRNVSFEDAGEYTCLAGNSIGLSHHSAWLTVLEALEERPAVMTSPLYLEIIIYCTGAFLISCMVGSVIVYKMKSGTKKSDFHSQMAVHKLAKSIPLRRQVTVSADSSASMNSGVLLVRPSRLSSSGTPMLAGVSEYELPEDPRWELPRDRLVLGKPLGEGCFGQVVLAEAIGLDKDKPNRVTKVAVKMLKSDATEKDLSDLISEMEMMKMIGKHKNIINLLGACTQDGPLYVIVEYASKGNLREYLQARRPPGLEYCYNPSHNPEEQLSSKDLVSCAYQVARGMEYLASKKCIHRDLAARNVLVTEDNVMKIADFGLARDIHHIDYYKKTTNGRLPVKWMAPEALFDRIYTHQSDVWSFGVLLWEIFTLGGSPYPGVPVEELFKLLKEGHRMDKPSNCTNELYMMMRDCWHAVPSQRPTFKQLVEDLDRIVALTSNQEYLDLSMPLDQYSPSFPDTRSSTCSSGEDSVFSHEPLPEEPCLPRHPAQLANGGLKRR

Sequence	phosphorylation enrichment
ARRHPYFFAPE [ALB_Y172_Y174F]	2.85
SVVVPYESPEV [TP53_Y220_P222S]	0.561
RRIHSYRGHLW [VHL_Y112]	2.16
WFPANYVKLLS [ITSN1_Y1132]	0.763
DLVLQYLRVPL [F9_Y371_A366D]	0.528
DNEALYDICFC [TUBB3_Y208_R213C]	0.748
GLVFLYMEKNQ [PRELP_Y156]	0.339
ERRLIYASDPK [VPS13D_Y864_T865A]	0.46
PPAPRCHHSAV [LZTR1_Y119_Y119C]	0.839
NDDDVYLSLEE [VAV2_Y142_R143L]	0.725
NTGDDYDLYGG [PTPN11_Y63_Y62D]	0.51
SLESAYPEGSQ [TTF1_Y357]	0.61
ESLRPYDVMDV [KCNQ2_Y562]	0.455
FKDYFYCWNTF [AICDA_Y146]	8.79
DKANRYFSPNF [PTEN_Y336]	0.397
KDQGIYEDYVE [MYL6_Y86_T85I]	0.58
EKESCYILHSS [PATJ_Y783_E779K]	0.572

Sequence	phosphorylation enrichment
EILDVYIFLGP [GAA_Y340_G335E]	2
DLITAYRAHGF [PDHA1_Y118_H113D]	0.525
LNPLIYTLRNA [OR4C46_Y285_K288R]	0.922
MEVGQYFFVKC [CYBB_Y324_I325F]	4.99
KKRSVYIKVLF [CC2D2A_Y683_L684I]	0.457
KYLENYLNCLL [PLD2_Y169_R172C]	0.989
YRAVKYLQMVG [AVPR2_Y117_C112Y]	0.552
AAGGRYDGLVG [HARS1_Y363]	0.291
RQIQSYTCEID [DES_Y331_H326R]	0.515
LLKKVYLMLDN [STAT1_Y203_M202V]	0.968
RREWYYEVIIV [BACE1_Y260]	2.85
LEDEVYAQKMK [TPM2_Y261]	1.25
NTGVYYDLYGG [PTPN11_Y63_D61V]	13.7
HRLSTYTKMLF [CHST8_Y251]	0.428
PSAVAYPKRSQ [MARK3_Y432_V429A]	0.382
SVVVPYEPPDV [TP53_Y220_E224D]	0.524

These sequences were tested against FGFR3 (UniProt P22607) in the same assay as above.
FGFR3, sequence (P22607 whole entry, looked up): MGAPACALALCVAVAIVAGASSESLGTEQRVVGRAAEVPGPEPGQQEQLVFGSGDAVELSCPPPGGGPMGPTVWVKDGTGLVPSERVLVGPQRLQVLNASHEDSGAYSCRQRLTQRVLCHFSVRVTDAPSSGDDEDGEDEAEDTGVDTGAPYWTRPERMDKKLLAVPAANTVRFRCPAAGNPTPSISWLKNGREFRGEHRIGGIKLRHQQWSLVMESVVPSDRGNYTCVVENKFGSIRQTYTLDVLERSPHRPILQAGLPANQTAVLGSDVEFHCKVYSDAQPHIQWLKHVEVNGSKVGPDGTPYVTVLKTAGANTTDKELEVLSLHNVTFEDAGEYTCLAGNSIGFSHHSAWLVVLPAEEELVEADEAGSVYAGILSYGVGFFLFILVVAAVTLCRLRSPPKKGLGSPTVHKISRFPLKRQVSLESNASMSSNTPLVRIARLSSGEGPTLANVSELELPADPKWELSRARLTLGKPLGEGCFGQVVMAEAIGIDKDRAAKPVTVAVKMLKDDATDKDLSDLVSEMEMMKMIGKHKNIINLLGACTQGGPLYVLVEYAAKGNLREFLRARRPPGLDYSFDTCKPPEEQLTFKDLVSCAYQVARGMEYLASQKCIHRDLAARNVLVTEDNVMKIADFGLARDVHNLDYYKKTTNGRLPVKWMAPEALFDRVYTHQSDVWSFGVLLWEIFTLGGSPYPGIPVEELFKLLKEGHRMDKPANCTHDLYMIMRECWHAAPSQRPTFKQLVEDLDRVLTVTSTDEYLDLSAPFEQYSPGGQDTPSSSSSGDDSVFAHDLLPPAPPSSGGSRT

Sequence	phosphorylation enrichment
ARRHPYFFAPE [ALB_Y172_Y174F]	1.86
SVVVPYESPEV [TP53_Y220_P222S]	0.647
RRIHSYRGHLW [VHL_Y112]	1.93
WFPANYVKLLS [ITSN1_Y1132]	0.825
DLVLQYLRVPL [F9_Y371_A366D]	0.757
DNEALYDICFC [TUBB3_Y208_R213C]	0.992
GLVFLYMEKNQ [PRELP_Y156]	0.719
ERRLIYASDPK [VPS13D_Y864_T865A]	0.479
PPAPRCHHSAV [LZTR1_Y119_Y119C]	1.21
NDDDVYLSLEE [VAV2_Y142_R143L]	0.984
NTGDDYDLYGG [PTPN11_Y63_Y62D]	0.683
SLESAYPEGSQ [TTF1_Y357]	0.629
ESLRPYDVMDV [KCNQ2_Y562]	0.665
FKDYFYCWNTF [AICDA_Y146]	7.02
DKANRYFSPNF [PTEN_Y336]	0.461
KDQGIYEDYVE [MYL6_Y86_T85I]	0.672
EKESCYILHSS [PATJ_Y783_E779K]	0.77

Sequence	phosphorylation enrichment
EILDVYIFLGP [GAA_Y340_G335E]	1.79
DLITAYRAHGF [PDHA1_Y118_H113D]	0.54
LNPLIYTLRNA [OR4C46_Y285_K288R]	0.863
MEVGQYFFVKC [CYBB_Y324_I325F]	4.7
KKRSVYIKVLF [CC2D2A_Y683_L684I]	0.515
KYLENYLNCLL [PLD2_Y169_R172C]	1.05
YRAVKYLQMVG [AVPR2_Y117_C112Y]	0.653
AAGGRYDGLVG [HARS1_Y363]	0.48
RQIQSYTCEID [DES_Y331_H326R]	0.726
LLKKVYLMLDN [STAT1_Y203_M202V]	1.15
RREWYYEVIIV [BACE1_Y260]	2.03
LEDEVYAQKMK [TPM2_Y261]	1.97
NTGVYYDLYGG [PTPN11_Y63_D61V]	10.8
HRLSTYTKMLF [CHST8_Y251]	0.74
PSAVAYPKRSQ [MARK3_Y432_V429A]	0.545
SVVVPYEPPDV [TP53_Y220_E224D]	0.612

These sequences were tested on c-Abl (mouse) in the same assay as above.

Sequence	phosphorylation enrichment
ARRHPYFFAPE [ALB_Y172_Y174F]	0.538
SVVVPYESPEV [TP53_Y220_P222S]	0.73
RRIHSYRGHLW [VHL_Y112]	3.28
WFPANYVKLLS [ITSN1_Y1132]	0.596
DLVLQYLRVPL [F9_Y371_A366D]	0.617
DNEALYDICFC [TUBB3_Y208_R213C]	2.07
GLVFLYMEKNQ [PRELP_Y156]	0.854
ERRLIYASDPK [VPS13D_Y864_T865A]	0.545
PPAPRCHHSAV [LZTR1_Y119_Y119C]	0.842
NDDDVYLSLEE [VAV2_Y142_R143L]	1.05
NTGDDYDLYGG [PTPN11_Y63_Y62D]	0.684
SLESAYPEGSQ [TTF1_Y357]	0.601
ESLRPYDVMDV [KCNQ2_Y562]	0.595
FKDYFYCWNTF [AICDA_Y146]	1.22
DKANRYFSPNF [PTEN_Y336]	0.438
KDQGIYEDYVE [MYL6_Y86_T85I]	0.851
EKESCYILHSS [PATJ_Y783_E779K]	0.707

Sequence	phosphorylation enrichment
EILDVYIFLGP [GAA_Y340_G335E]	0.649
DLITAYRAHGF [PDHA1_Y118_H113D]	0.535
LNPLIYTLRNA [OR4C46_Y285_K288R]	1.76
MEVGQYFFVKC [CYBB_Y324_I325F]	1.39
KKRSVYIKVLF [CC2D2A_Y683_L684I]	0.644
KYLENYLNCLL [PLD2_Y169_R172C]	1.03
YRAVKYLQMVG [AVPR2_Y117_C112Y]	0.621
AAGGRYDGLVG [HARS1_Y363]	0.538
RQIQSYTCEID [DES_Y331_H326R]	0.817
LLKKVYLMLDN [STAT1_Y203_M202V]	1.34
RREWYYEVIIV [BACE1_Y260]	0.771
LEDEVYAQKMK [TPM2_Y261]	1.49
NTGVYYDLYGG [PTPN11_Y63_D61V]	0.715
HRLSTYTKMLF [CHST8_Y251]	1.02
PSAVAYPKRSQ [MARK3_Y432_V429A]	0.615
SVVVPYEPPDV [TP53_Y220_E224D]	0.603

What follows are sequences tested against Hck (UniProt P08631) in the same assay as above.
Hck, sequence (P08631 whole entry, looked up): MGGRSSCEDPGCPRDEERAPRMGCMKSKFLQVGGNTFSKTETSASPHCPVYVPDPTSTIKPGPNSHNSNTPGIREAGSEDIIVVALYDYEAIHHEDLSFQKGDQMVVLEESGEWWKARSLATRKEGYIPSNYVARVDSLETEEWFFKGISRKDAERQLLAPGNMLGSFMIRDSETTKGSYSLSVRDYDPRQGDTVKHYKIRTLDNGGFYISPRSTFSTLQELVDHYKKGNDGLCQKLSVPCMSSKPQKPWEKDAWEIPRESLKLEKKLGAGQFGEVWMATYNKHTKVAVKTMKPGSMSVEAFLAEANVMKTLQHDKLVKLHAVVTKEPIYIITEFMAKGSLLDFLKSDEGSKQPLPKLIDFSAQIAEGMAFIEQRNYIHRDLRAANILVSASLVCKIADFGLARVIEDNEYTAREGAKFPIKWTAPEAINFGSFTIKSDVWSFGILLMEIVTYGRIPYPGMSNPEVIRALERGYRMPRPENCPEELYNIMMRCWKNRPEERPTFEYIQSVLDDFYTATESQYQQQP

Sequence	phosphorylation enrichment
ARRHPYFFAPE [ALB_Y172_Y174F]	0.402
SVVVPYESPEV [TP53_Y220_P222S]	0.566
RRIHSYRGHLW [VHL_Y112]	2.59
WFPANYVKLLS [ITSN1_Y1132]	0.549
DLVLQYLRVPL [F9_Y371_A366D]	0.469
DNEALYDICFC [TUBB3_Y208_R213C]	5.92
GLVFLYMEKNQ [PRELP_Y156]	0.337
ERRLIYASDPK [VPS13D_Y864_T865A]	0.473
PPAPRCHHSAV [LZTR1_Y119_Y119C]	1.28
NDDDVYLSLEE [VAV2_Y142_R143L]	0.721
NTGDDYDLYGG [PTPN11_Y63_Y62D]	2.47
SLESAYPEGSQ [TTF1_Y357]	0.593
ESLRPYDVMDV [KCNQ2_Y562]	0.602
FKDYFYCWNTF [AICDA_Y146]	0.557
DKANRYFSPNF [PTEN_Y336]	0.402
KDQGIYEDYVE [MYL6_Y86_T85I]	1.06
EKESCYILHSS [PATJ_Y783_E779K]	0.497

Sequence	phosphorylation enrichment
EILDVYIFLGP [GAA_Y340_G335E]	0.742
DLITAYRAHGF [PDHA1_Y118_H113D]	0.49
LNPLIYTLRNA [OR4C46_Y285_K288R]	7.15
MEVGQYFFVKC [CYBB_Y324_I325F]	0.719
KKRSVYIKVLF [CC2D2A_Y683_L684I]	0.363
KYLENYLNCLL [PLD2_Y169_R172C]	0.456
YRAVKYLQMVG [AVPR2_Y117_C112Y]	0.584
AAGGRYDGLVG [HARS1_Y363]	0.351
RQIQSYTCEID [DES_Y331_H326R]	0.745
LLKKVYLMLDN [STAT1_Y203_M202V]	0.658
RREWYYEVIIV [BACE1_Y260]	0.718
LEDEVYAQKMK [TPM2_Y261]	2.62
NTGVYYDLYGG [PTPN11_Y63_D61V]	6.5
HRLSTYTKMLF [CHST8_Y251]	0.744
PSAVAYPKRSQ [MARK3_Y432_V429A]	0.441
SVVVPYEPPDV [TP53_Y220_E224D]	0.447
